# From the NTF2 design screens of Basanta et al. (2020)
# Test: protease stability score; higher = more stable; yeast display proteolysis, trypsin and chymotrypsin;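 further: log10 excess protease needed over predicted unfolded state with 0 meaning unfolded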
row,Sequence,protease stability score
1,DEHTEKKRADEIKHAMRENDEKKLNDQMPPDVRMDVGDKQLHGRDEVIRHLQTQLRHADHVEIKHVEVTNGRVSIDAVFDVNGTRKRQVVVFVFHNGRAKEIHIEDK,0.861
2,DEHTERTLSRLVKRNDEKTMADRADENARAEYGDTTYHGKEEFKKWVNKMEERVDHRDLKEIRVHGNKIKVKMDQEVNGRRVEMEFEAHYHNGRLKFEVMKVRDEEQKEQLKQQQT,-0.09
3,DEHTSAHNFIEHEWKVFSTNDKKSMKELIDKNVKIDVGDKQVNGREEAARQEVETAKRVDHVDVKLQHLSVHNGRIKAQFRRVLRVDGQDNDEVLRFVIQLNNGNAQAKDKHET,0.115
4,DEHVEHLVHEIMDALRTNDPDRLRQLMDPNAHAQIGDKQLHGRRTMVDHWQDTLEEIRVSIDVKSFSVKNGRADMTAKVEREDNGKPDDRTADIHIEFHNGKAVRIDVKYKG,0.275
5,DEHVEKRVDEWWKALRQNNPDEANKNMDPNAKLHIGDKTVHGREEAKRQIENRFKEMRFSYKVRHLTAENGEVEIEATFKVEHNGQPRSRSMRMSINVHNGRIVDIQVDIDPRDQQKFRK,0.041
6,DEHVIKNFLRVVRTNNEDSFVKMADKDAEITIGDKRYHGREDVHKAAKQRKDAFDEVSIVDYRIDGDKIKVRQSATVNGKKLDFEYTMVLHNGRVRTLDMKARDEEMERRLREIID,0.023
7,DEHVKETFHSFLHAQTTGDPDKMHKLFDKDARVRYGDKVYHGRETLMRIFHKLRRNIRVDVKFEDIKVDNGKLHAEADMTINHDGKPRQKKVIIELVLHNGKIKQFNQELRG,0.723
8,DEHVLELAKELFDALSFGSPEDVHRNADKNARFRIGDTEIKGMEQYVETVHKIKRELRLSITVKSMTAHNGDADIKADAVFNHNGTPRRVKIEVTMHVHNGKAVSVDIQFRK,0.848
9,DEHVLHELERAFRDNDFERLQEQFDENARVEIGDKTYHGKNQVQQAMNDFKTAYDHYQLKTFDIHGEKVFADVKATVNGHDVEFEWEMTASNGRIKKLHIQARDEEVKEQLKRALS,0.109
10,DEHVLRQVEEWLHNVQTGDEDRLIELVDPNARVEIGDKVIHGMHRMARDLRRKRENMDINIRDYRVQVRGDKARVDIEEQVHHNGRPNSRRFEIQVDADNGRVKQIKWQSES,0.125
11,DEHVNKLAHRLLEAIEEGNPEMFKELADEDVHFQVGDKSYHGMEDYANSIVEKLRQMHFEIKSYSFRNEPGRATLDLRVQMEHDGQPRESKNTVDVKAKNGRVKRVKFREKR,0.155
12,DEHVQQALERYWDAVTTNNPEQAVNNVDPNVEIVVGDKTLTGREDVHKHIKDVKDKQNVEIKSMQLRVHNGRVRARFKFEVNHNGEPTTDVVVVEAEVKNGKIQRVEARRDK,0.899
13,DEHVSRNFENMLRAIKSGNEEEIRELIDKNVRVQVGDKEIHGREEAVKDFKRRHEEIRFNLEVKRIEVRGNKVDVDAEASMTVNGKPYEWHVNIEVRARNGRIKYLNYRVPEEQVKKVES,0.177
14,DEHVSRNLLRVLKLMHKGNFEEVVNNMDPNARIKVGDKEVHGREKEQTKNRKKEKHMELKVDDYRFRDNNGQVEAEVDQKFTHDGQPRSERFKFRVEAHNGRIKKQSQKEDR,0.007
15,DEKAKDLFSKVMEAIRTGDEQKIRDNADPNVSVRYGDRNLTGREKVAETNYKIKRHMRIKIDHVRMEVHNGEAEVNVKRVITINGRPTRDTYRLIVVAQGDKLKSVVWKFSEEQRKRLEQ,0.411
16,DEKAKHMVERFFTALTTGDEQKLRDNVDPNAKFHYGDKRISGMEDNARTLVEEQKEIRFQYDRMHLDAKGDTIDVKLKYIADVNGKPIDVHVDVKFQFQNGRVQSISERIDPRVEKEMHS,0.162
17,DEKALEFIRKFEEVMKKGDHDTLKEMMDPNARFQYGDKTVHGREHAADWAKRVRDQMRVRIISVKYTARGNKATIQVRNQVNFNGRPLHDHFEVSFDMHNGKIKHASRTLSEEQRQRLEQ,0.062
18,DEKALENLRRVNDARKTNDEDRIKKLLDKDARVQVGDRQIKGRENVSDTLRKLEEHMRIEIKDYRVDVQNGRAKLEVHWQFEVNGKPRKVTYDWEAEANNGKIQTMHAQFTEEDKRKRKQ,-0.039

row,Sequence,protease stability score
1,DEKALNHANKMLEAYETGNEKQVADQVDKDVRVEIGDKFYHGRENLRERMKKLMKEARFRITVKSVKVQGDQAKIDAEVTHTHNGQPRKRHMSMTVDVQGDKIKQVHVQYHG,0.523
2,DEKALQLLQRIMEAWQKGDPQQVVDNIDKDARIHIGDKHLHGREDARRVVEQEMTEARLSFDVKHVSVQGDKVKVSFHAQLDTNGRPKTYRASATMNASNGKAKQMDVKEDK,-0.232
3,DEKALRQFEKFMEAIKNGDEEKVVQLVDPNATVRYGDKKVEGREQIKDQMKKLHEEMRIQVNSVDVEDHNGRAHVRIDVIQEHNGTPDRAQLRANMSASNGRIKDLEFTKTK,-0.148
4,DEKALRSAEEWVRQLNENNEDTLMKLADPNAEFSIGDKTVHGREQLREWIKKTLDKMHVHVKDVKYTDSGDKAQIDIDRVNEHNGRPDEDNVEMTMHLDNGTIHSVDVRKKS,-0.303
5,DEKALRVAEEAIKAVQTGDPKKFATMADENARVRIGDKEVKGRENQVQLMKDWKHHMRWEQDVKSVTANGDKVEVKFEQVSETNGKPDHDTWNVHFTAQNGEVKSMTMTSNK,-0.504
6,DEKAMDKVRKVKEIEDEGDSDEFNKMFDPNARFNVGDKSVHGMETYVDQLSKELKRLKRSVRIKSMHAEGNRVDMTVKYEVDVNGRPYRAQVHIIYTFHNGHFSHVTYRLDPQSQREFQK,0.017
7,DEKANTQAKRLLDVMNSGDEEKILRQMDEDVEVVIGDTKVKGREDIRRWMQKVLKELRVVYDLKHLRAHNGKIDIKAKMHNNHNGQPNSNDVIIIAKIHNGRFKHFEVHTQS,0.804
8,DEKAQDILKEIANAIRTNNPSQLKNLLDPNAKVKIGDKEFHGMDQLQEDVQRKKEKMRVDFDVRRVEVQGETVHARARVVIHHNGKPATMTYSMIVHIKNGRVRELQVNISETDKEKQKS,1.62
9,DEKAQTRVQDYLRALQNGDHKRLREYMDENVHLRVGDKEVHGRTTAANEIVKEVRNQEMSMSIKRVRASENHVQMEVVVQVEHNGKPREFSFQLNFKLENGQAKEIKYKIDPTVLKNIRK,0.507
10,DEKARKILKKMMHALEKGDEDKVRHLLDPNVKVRIGDKDITGREEVARNIFKTLQSMRVKIDRFHVEAKGDKVRAHQTAKAQHNGQPRRYQATVTARIHNGHFQRIDIQVDK,0.944
11,DEKDAEKVMRELAKAAVNGNYKKAVQLVKEDVQVEYMDQRTHGKEKLKEMLKKFTDLGAEVEYKEVHVKGDTVTVKVEAKMDGKKVKFKVQYVVTDHRLDKVTVKYSEEAYKVIKHG,0.525
12,DEKDAREWVKDREQNDFDQISRMMDENVKLEYGNKEVHGRERVNTELKKEEETADHVSIDRVEVEEGRAVIDAVVRFNGKDFKMVVTVSMENGKVKYIRDRFTDEQLEEDFVKQFN,0.728
13,DEKDEAVKLLEHLMEALRRGDEDHARSLADPNVRADIGDRDYSGRNKVAQEWIRRATQADHLELRIRDVRVDGNEVTLEAELSMKVNGETHSDTVHFQFEKHNGRVVLVHVQFK,1.56
14,DEKDETVVRKWLEAQHTGNPEEAKHQVDKNVDIRVGDHKVTGRHQIMHNLEQRKKSARFELQLTHLSASNGKVTIQIDVRINYNGRPFTDTLHATAKIKNGQLHSFSVDVDEEYLKKVKS,-0.272
15,DEKDHARHLVKRLLHAIRTGNPDEAMRLAPPNVRVSYGDTQIHGREQFHKWVKTIRDTVDRQRFTIVNVTVHNGQANVSIRYRLNHNGKDDKNEMTARFVEHNGQLKLVSMSRS,0.522
16,DEKDHENVARNLVTAIVQGDPDRFKELLDKNVKFKYGETDVKGKDNAERVMKDFIKEADQVRVQTLSFHGEHIVINMVADVNGEEQRFQIRAKVHNGRVKEMVWHSR,1.5
17,DEKDKARKLNDRVREVMETGDPRKFTELADPNARYIIGDKEFHGTENITKYAKTLRDQVDHVDVKVDHVNVQGNKVVADMKFTAEKNGSRLHYRMIVVAVIQGDNVNAQQVHFK,1.18
18,DEKDKARRMAETIDKLAERNDFEELAKNADPDAKVTVGDKTFHGEENLVKHLQEERKRIDQVRIEVKDVKVQGDEIRINAKYEATHNGRRVDQQVRVIVEVHNGRLVISEMQYE,0.979
